Data as given in the supplement of paper PMC10065799, “High-throughput profiling of sequence recognition by tyrosine kinases and SH2 domains using bacterial peptide display” (eLife, 2023).

What was measured:
[1] = biological target: c-Src SH2; assay: SH2 binding enrichment of the phosphorylated peptide, bacterial display (enrichment ratio); higher = better substrate or ligand; peptides without Tyr show the background
[2] = biological target: Grb2 SH2 (UniProt P62993); assay: as above
[3] = biological target: SHP2-C SH2; assay: as above
[4] = biological target: Hck (UniProt P08631); assay: phosphorylation enrichment, bacterial display (enrichment ratio); higher = better substrate or ligand; peptides without Tyr show the background
[5] = tested on: AncSZ; assay: as above
[6] = biological target: EPHB1 (UniProt P54762); assay: as above
[7] = biological target: Fyn (UniProt P06241); assay: as above
[8] = biological target: MERTK (UniProt Q12866); assay: as above
[9] = biological target: FGFR3 (UniProt P22607); assay: as above
[10] = tested on: c-Src; assay: as above
[11] = biological target: Jak2 (UniProt O60674); assay: as above
[12] = tested on: c-Abl (mouse); assay: as above
[13] = biological target: FGFR1 (UniProt P11362); assay: as above
[14] = biological target: EPHB2 (UniProt P29323); assay: as above
[15] = biological target: Fes (UniProt P07332); assay: as above
[16] = tested on: Fer (mouse); assay: as above
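Throughout, for SH2 binding enrichment of the phosphorylated peptide, bacterial display: peptide library displayed on the E. coli surface as eCPX fusions, selected cells deep-sequenced, score is each peptide's frequency after selection divided by its frequency in the input.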
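Throughout, for phosphorylation enrichment, bacterial display: 11-residue human phosphosite peptides and single-mutation variants displayed on the E. coli surface, counted by deep sequencing, each peptide's frequency after selection divided by its frequency in the unselected input library; frequency after pTyr selection over input frequency; kinase dosed for 20-30% of maximal phosphorylation in three min.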

Sequence of Jak2 (O60674 whole entry, looked up): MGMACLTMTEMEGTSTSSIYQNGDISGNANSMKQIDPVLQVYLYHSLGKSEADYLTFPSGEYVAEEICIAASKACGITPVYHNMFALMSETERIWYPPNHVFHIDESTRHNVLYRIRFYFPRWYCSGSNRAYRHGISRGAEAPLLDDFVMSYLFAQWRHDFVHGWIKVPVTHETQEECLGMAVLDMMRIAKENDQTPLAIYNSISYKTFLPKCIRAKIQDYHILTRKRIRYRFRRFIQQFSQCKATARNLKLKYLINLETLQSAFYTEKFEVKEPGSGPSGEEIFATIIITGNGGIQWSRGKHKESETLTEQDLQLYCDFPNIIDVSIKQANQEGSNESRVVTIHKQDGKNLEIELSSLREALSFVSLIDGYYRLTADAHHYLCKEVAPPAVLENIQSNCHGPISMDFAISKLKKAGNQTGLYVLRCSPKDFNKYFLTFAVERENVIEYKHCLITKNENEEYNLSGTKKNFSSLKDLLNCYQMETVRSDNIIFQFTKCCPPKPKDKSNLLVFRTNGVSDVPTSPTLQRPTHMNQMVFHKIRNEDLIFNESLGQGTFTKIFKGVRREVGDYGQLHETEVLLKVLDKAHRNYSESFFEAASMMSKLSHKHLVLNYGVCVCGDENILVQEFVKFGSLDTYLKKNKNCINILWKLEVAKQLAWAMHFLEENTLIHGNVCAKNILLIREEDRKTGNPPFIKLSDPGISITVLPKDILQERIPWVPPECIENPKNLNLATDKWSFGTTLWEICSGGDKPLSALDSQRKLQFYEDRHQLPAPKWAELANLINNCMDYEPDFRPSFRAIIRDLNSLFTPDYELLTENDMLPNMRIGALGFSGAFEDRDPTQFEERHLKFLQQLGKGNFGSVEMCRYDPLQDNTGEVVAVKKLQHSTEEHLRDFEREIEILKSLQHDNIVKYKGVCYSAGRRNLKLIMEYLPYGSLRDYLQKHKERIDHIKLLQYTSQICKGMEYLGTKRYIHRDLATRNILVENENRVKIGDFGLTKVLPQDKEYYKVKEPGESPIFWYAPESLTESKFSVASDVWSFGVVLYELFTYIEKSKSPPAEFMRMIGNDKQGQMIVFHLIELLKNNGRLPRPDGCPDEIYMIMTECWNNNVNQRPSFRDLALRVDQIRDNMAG
Sequence of Fes (P07332 whole entry, looked up): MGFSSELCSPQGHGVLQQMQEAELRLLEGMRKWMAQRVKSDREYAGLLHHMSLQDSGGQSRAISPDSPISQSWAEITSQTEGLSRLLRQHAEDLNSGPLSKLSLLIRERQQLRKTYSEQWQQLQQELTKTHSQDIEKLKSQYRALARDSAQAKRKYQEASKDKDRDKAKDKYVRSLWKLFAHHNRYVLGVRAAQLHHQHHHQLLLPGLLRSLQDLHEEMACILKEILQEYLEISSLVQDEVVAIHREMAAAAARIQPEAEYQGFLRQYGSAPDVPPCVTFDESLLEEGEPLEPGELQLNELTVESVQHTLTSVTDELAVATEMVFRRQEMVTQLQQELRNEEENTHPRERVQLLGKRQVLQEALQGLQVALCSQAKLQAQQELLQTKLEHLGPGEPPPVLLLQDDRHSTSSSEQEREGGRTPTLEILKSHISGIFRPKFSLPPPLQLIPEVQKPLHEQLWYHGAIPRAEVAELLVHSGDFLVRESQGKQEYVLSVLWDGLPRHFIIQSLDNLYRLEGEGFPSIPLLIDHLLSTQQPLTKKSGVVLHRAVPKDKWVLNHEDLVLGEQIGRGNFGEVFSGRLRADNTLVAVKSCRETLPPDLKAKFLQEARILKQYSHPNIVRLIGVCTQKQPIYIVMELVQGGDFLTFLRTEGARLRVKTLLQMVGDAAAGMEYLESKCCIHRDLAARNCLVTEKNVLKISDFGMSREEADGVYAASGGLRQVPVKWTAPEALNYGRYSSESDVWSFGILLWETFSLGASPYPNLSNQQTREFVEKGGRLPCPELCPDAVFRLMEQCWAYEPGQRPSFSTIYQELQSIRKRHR
Sequence of EPHB1 (P54762 whole entry, looked up): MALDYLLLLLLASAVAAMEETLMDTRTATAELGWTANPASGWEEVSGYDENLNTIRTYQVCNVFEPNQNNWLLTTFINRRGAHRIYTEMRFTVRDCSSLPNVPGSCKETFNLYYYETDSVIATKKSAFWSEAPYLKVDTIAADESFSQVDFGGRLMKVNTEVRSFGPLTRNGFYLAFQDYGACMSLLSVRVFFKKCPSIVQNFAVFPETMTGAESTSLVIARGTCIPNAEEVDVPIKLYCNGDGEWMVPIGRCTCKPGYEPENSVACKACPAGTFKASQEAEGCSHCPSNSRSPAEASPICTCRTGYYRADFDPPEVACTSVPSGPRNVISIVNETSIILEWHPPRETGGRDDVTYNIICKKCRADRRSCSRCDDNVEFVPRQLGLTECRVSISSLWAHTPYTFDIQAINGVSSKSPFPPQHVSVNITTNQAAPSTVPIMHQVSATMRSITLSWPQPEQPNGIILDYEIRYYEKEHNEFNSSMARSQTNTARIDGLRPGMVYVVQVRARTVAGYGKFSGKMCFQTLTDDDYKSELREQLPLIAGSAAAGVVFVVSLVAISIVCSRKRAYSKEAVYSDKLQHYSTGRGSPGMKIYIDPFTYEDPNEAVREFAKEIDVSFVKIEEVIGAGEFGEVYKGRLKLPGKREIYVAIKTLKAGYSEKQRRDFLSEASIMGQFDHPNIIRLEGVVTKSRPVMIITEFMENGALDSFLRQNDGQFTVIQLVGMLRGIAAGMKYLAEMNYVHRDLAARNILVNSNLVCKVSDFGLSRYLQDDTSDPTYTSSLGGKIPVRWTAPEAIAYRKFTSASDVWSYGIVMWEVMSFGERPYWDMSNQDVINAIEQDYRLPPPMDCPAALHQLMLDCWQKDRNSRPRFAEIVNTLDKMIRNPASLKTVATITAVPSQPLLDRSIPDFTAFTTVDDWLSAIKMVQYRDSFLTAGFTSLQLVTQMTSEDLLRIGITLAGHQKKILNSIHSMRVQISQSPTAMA
Sequence of MERTK (Q12866 whole entry, looked up): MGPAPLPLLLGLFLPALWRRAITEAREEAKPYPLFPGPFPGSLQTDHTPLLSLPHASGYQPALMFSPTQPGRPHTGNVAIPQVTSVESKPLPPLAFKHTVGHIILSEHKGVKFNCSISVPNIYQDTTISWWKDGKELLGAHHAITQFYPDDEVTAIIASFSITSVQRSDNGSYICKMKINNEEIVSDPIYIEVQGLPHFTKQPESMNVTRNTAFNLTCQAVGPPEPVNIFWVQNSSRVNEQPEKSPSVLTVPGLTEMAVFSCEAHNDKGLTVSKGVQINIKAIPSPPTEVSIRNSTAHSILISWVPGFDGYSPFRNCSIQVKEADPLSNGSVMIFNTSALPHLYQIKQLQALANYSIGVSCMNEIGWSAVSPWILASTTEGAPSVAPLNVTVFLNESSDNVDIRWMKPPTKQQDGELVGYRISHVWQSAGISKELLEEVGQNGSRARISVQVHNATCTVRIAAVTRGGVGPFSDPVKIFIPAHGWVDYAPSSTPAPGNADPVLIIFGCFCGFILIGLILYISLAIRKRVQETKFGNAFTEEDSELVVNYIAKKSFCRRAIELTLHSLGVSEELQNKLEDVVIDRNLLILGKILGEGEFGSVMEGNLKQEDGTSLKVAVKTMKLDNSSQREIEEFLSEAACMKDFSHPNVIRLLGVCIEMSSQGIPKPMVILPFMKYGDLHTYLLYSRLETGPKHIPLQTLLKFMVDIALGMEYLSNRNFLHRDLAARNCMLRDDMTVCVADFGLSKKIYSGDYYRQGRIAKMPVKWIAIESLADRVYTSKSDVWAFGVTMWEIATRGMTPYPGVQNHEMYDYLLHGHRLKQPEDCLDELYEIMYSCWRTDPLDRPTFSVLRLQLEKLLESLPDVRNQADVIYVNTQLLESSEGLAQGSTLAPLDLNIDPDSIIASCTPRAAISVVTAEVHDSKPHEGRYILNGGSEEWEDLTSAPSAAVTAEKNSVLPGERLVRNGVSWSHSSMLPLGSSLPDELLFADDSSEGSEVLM
Sequence of FGFR3 (P22607 whole entry, looked up): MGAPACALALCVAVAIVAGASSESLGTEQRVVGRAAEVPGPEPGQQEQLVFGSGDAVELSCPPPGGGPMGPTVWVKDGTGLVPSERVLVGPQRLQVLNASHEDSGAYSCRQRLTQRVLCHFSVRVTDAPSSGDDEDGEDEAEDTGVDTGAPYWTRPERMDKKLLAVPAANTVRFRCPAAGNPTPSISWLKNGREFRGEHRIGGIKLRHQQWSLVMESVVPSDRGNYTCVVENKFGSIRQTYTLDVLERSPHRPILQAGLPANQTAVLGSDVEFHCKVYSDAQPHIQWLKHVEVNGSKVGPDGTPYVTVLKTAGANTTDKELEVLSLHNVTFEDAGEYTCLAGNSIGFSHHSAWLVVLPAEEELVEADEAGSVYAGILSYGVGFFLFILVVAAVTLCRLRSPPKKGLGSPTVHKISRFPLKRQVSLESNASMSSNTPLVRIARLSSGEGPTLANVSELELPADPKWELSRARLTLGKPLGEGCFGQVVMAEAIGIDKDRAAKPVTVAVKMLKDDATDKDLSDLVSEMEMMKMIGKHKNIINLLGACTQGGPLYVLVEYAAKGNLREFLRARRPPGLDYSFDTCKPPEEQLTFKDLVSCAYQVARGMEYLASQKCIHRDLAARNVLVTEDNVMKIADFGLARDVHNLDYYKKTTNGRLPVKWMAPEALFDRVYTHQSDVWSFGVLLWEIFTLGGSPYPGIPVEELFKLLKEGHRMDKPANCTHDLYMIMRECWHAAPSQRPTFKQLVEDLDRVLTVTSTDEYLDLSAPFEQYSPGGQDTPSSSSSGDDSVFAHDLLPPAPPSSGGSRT
Sequence of Grb2 SH2 (P62993 whole entry, looked up): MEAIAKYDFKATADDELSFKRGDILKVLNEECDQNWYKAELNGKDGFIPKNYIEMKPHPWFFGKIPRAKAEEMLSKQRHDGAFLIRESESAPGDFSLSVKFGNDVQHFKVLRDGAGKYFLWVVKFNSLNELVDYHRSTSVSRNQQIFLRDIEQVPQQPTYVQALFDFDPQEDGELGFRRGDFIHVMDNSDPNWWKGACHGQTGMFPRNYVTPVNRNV

| Sequence | SH2 binding enrichment [1] | SH2 binding enrichment [2] | SH2 binding enrichment [3] | phosphorylation enrichment [4] | phosphorylation enrichment [5] | phosphorylation enrichment [6] | phosphorylation enrichment [7] | phosphorylation enrichment [8] | phosphorylation enrichment [9] | phosphorylation enrichment [10] | phosphorylation enrichment [11] | phosphorylation enrichment [12] | phosphorylation enrichment [13] | phosphorylation enrichment [14] | phosphorylation enrichment [15] | phosphorylation enrichment [16] |
| --- | --- | --- | --- | --- | --- | --- | --- | --- | --- | --- | --- | --- | --- | --- | --- | --- |
| TYGVVYKARNK [CDK2_Y19] | 0.548 | 0.788 | 0.253 | 1.47 | 1.18 | 0.369 | 1.81 | 0.41 | 0.515 | 1.33 | 0.485 | 0.272 | 0.354 | 0.563 | 0.691 | 0.46 |
| TYVKSYTIHYS [F5_Y2153_M2148T] | 0.652 | 0.791 | 0.783 | 0.567 | 1.27 | 0.594 | 0.508 | 0.483 | 0.696 | 0.44 | 0.633 | 0.625 | 0.4 | 0.722 | 1.15 | 0.568 |
| VDASYCGGRGV [ANTXR2_Y381_Y381C] | 0.382 | 0.62 | 0.331 | 0.342 | 0.712 | 0.373 | 0.676 | 0.559 | 0.463 | 0.476 | 0.573 | 0.519 | 0.405 | 0.28 | 0.63 | 0.48 |
| VDASYYGGRGV [ANTXR2_Y381] | 0.471 | 0.738 | 0.638 | 1.92 | 0.702 | 0.708 | 0.786 | 0.775 | 0.647 | 0.999 | 0.804 | 0.698 | 0.772 | 0.386 | 0.665 | 0.46 |
| VDGFVYKLHPS [GCK_Y413_S411F] | 0.519 | 0.693 | 0.55 | 0.419 | 0.844 | 0.434 | 0.53 | 0.288 | 0.55 | 0.643 | 0.999 | 0.562 | 0.407 | 0.484 | 0.962 | 0.368 |
| VDSTEYEVASQ [SLC7A7_Y7] | 0.545 | 0.946 | 0.932 | 0.549 | 1.25 | 0.632 | 0.499 | 0.436 | 0.776 | 0.514 | 1.04 | 0.825 | 0.544 | 0.646 | 1.16 | 0.598 |
| VECQVYAEDPF [PCCA_Y401_R399Q_YF] | 0.498 | 0.764 | 0.501 | 0.587 | 1.22 | 0.6 | 0.52 | 0.408 | 1.16 | 0.602 | 0.99 | 0.748 | 0.446 | 0.548 | 1.24 | 0.663 |
| VEDPEYAVTQP [STOML2_Y124_L129P] | 0.504 | 0.877 | 0.666 | 0.608 | 1.54 | 0.567 | 0.543 | 0.473 | 0.848 | 0.58 | 1.32 | 1 | 0.646 | 0.602 | 1.33 | 0.664 |
| VEKEKYVSFIS [JMJD1C_Y596_M591V_YF] | 0.633 | 0.708 | 0.454 | 0.577 | 0.762 | 0.467 | 0.477 | 0.408 | 0.793 | 0.396 | 0.755 | 0.521 | 0.493 | 0.52 | 0.796 | 0.36 |
| VFDHIYTTQSD [RET_Y928_L923V] | 0.738 | 0.902 | 0.864 | 1.14 | 0.978 | 0.458 | 2.12 | 0.579 | 0.682 | 2.41 | 0.671 | 0.44 | 0.55 | 0.467 | 0.871 | 0.443 |
| VFFDLYGGEKF [PTPN11_Y66_D61V_YF] | 0.572 | 1.04 | 0.77 | 2.08 | 1.03 | 0.803 | 1.42 | 0.517 | 0.598 | 2.04 | 0.835 | 0.914 | 0.443 | 0.596 | 1.11 | 0.509 |
| VFFFSYLLKNH [PTEN_Y180_YF] | 0.616 | 0.982 | 0.896 | 0.391 | 1.06 | 0.559 | 0.373 | 0.362 | 0.729 | 0.426 | 1.11 | 0.918 | 0.643 | 0.519 | 1.57 | 0.537 |
| VGEGPYLISDL [ABCC12_Y7] | 0.414 | 0.786 | 0.663 | 0.483 | 0.952 | 0.65 | 0.507 | 0.468 | 0.734 | 0.752 | 1.05 | 0.768 | 0.466 | 0.5 | 1.01 | 0.578 |
| VGGRIYTDDGL [PKLR_Y218_I219T] | 0.453 | 0.653 | 0.887 | 0.426 | 0.768 | 0.412 | 0.427 | 0.37 | 0.612 | 0.306 | 0.595 | 0.629 | 0.427 | 0.592 | 0.921 | 0.463 |
| VGTTAYMAPEA [IRAK4_Y354] | 0.568 | 0.918 | 0.692 | 0.434 | 0.707 | 0.385 | 0.407 | 0.354 | 0.517 | 0.414 | 0.689 | 0.537 | 0.418 | 0.379 | 0.893 | 0.452 |
| VIKDKYPKAHY [APTX_Y209_R213H] | 0.956 | 1.19 | 1.11 | 0.273 | 0.449 | 0.268 | 0.278 | 0.285 | 0.505 | 0.377 | 0.579 | 0.561 | 0.34 | 0.359 | 0.599 | 0.358 |
| VIKDKYPKVRF [APTX_Y209_A212V_YF] | 1.04 | 1.4 | 1.4 | 0.443 | 0.493 | 0.4 | 0.278 | 0.4 | 0.599 | 0.452 | 0.734 | 0.56 | 0.444 | 0.373 | 0.591 | 0.448 |

| Sequence | SH2 binding enrichment [1] | SH2 binding enrichment [2] | SH2 binding enrichment [3] | phosphorylation enrichment [4] | phosphorylation enrichment [5] | phosphorylation enrichment [6] | phosphorylation enrichment [7] | phosphorylation enrichment [8] | phosphorylation enrichment [9] | phosphorylation enrichment [10] | phosphorylation enrichment [11] | phosphorylation enrichment [12] | phosphorylation enrichment [13] | phosphorylation enrichment [14] | phosphorylation enrichment [15] | phosphorylation enrichment [16] |
| --- | --- | --- | --- | --- | --- | --- | --- | --- | --- | --- | --- | --- | --- | --- | --- | --- |
| VIKDKYPQARY [APTX_Y209_K211Q] | 0.532 | 0.888 | 0.66 | 0.373 | 0.498 | 0.401 | 0.363 | 0.377 | 0.453 | 0.43 | 0.554 | 0.523 | 0.358 | 0.394 | 0.569 | 0.42 |
| VIVRMYDYHVL [RPF2_Y109_G106V] | 1.36 | 1.54 | 1.53 | 0.587 | 1.2 | 2.24 | 0.499 | 2.39 | 2.12 | 0.498 | 0.975 | 0.746 | 3.25 | 3.26 | 1.04 | 4.25 |
| VMLENYSNLLS [ZFP69_Y109_V113L] | 0.778 | 0.899 | 0.928 | 0.422 | 0.66 | 1.97 | 0.396 | 0.388 | 0.586 | 0.428 | 0.699 | 0.595 | 0.559 | 0.864 | 0.832 | 0.372 |
| VMTLDYSKTVV [SETD2_Y770_V768L] | 0.458 | 0.845 | 0.722 | 0.439 | 0.719 | 0.571 | 0.37 | 0.372 | 0.701 | 0.415 | 0.775 | 0.643 | 0.419 | 0.52 | 0.738 | 0.449 |
| VMTSKYRGGGG [HBA1_Y141_L137M] | 0.691 | 0.834 | 0.792 | 0.39 | 0.433 | 0.332 | 0.378 | 0.36 | 0.467 | 0.363 | 0.424 | 0.384 | 0.444 | 0.427 | 0.491 | 0.378 |
| VMTVDYSKTVV [SETD2_Y770] | 0.528 | 0.937 | 1.19 | 0.434 | 0.638 | 0.379 | 0.451 | 0.35 | 0.485 | 0.319 | 0.615 | 0.574 | 0.456 | 0.417 | 0.749 | 0.493 |
| VMVCAYLLHRG [PTEN_Y138_I135V] | 0.724 | 0.91 | 0.723 | 0.584 | 1.13 | 0.614 | 0.478 | 0.481 | 0.78 | 0.558 | 1.23 | 1.18 | 0.502 | 0.538 | 1.3 | 0.558 |
| VNCHQYDGLVE [ATP2A2_Y407] | 12.5 | 1.18 | 0.983 | 0.651 | 1.06 | 0.658 | 0.626 | 0.499 | 0.818 | 0.531 | 0.848 | 0.672 | 0.614 | 0.659 | 1.2 | 0.598 |
| VNFGAYINDFN [GLB1_Y488_K493N_YF] | 1.48 | 3.12 | 0.674 | 0.46 | 0.954 | 0.633 | 0.451 | 0.409 | 0.708 | 0.397 | 0.899 | 0.788 | 0.474 | 0.6 | 1.07 | 0.571 |
| VNRSGYTLIRK [ATP6V0A2_Y688] | 1.74 | 0.56 | 0.814 | 0.429 | 0.64 | 0.333 | 0.533 | 0.386 | 0.452 | 0.43 | 0.429 | 0.568 | 0.315 | 0.444 | 0.672 | 0.366 |
| VPLATYMQIYK [RPL21_Y30_R32Q] | 0.73 | 0.909 | 0.791 | 2.01 | 0.749 | 1.98 | 0.975 | 0.541 | 0.53 | 1.16 | 0.51 | 0.565 | 0.448 | 0.737 | 0.636 | 0.315 |
| VPTSKYRGGGG [HBA1_Y141_L137P] | 0.558 | 0.929 | 0.597 | 0.355 | 0.392 | 0.284 | 0.452 | 0.392 | 0.349 | 0.363 | 0.572 | 0.446 | 0.392 | 0.341 | 0.457 | 0.327 |
| VQDPAYLRDIN [OPRK1_Y369_D374N] | 0.454 | 0.75 | 0.555 | 0.442 | 0.828 | 0.608 | 0.467 | 0.333 | 0.623 | 0.488 | 0.766 | 0.604 | 0.415 | 0.485 | 0.974 | 0.46 |
| VRFMAYTDEIF [F8_Y450_T454I] | 0.554 | 1.07 | 0.72 | 0.436 | 1.21 | 0.598 | 0.434 | 0.697 | 0.753 | 0.434 | 1.07 | 1.23 | 0.608 | 0.595 | 1.21 | 0.65 |
| VSYDEYRYRSF [CFTR_Y515_V520F] | 0.676 | 0.72 | 0.717 | 0.598 | 0.89 | 0.69 | 0.548 | 0.522 | 0.606 | 0.939 | 0.983 | 0.916 | 0.486 | 0.467 | 0.951 | 0.435 |
| VTPVMYTYDEY [COL10A1_Y623_G618V] | 2.44 | 1.05 | 0.685 | 0.932 | 1.15 | 0.633 | 1.61 | 0.912 | 0.795 | 2.22 | 0.917 | 0.568 | 0.637 | 0.798 | 1.05 | 0.542 |
